The labels stand for the following.
B1: NLV3 TCR beta chain (CDR3β only) (parent)
chain: ASSPTGGSPSPLH
partner: MLVPMVATV
B2: NLV3 TCR beta chain (CDR3β only) (parent)
chain: ASSPTGGSPSPLH
partner: NLCPMVATV

The variants in one test derive from B1. The test is described as follows: T-Switch: Jurkat TCRβ−/− cells expressing a CDR3 saturation-mutagenesis library, stained with two peptide-HLA-A*02:01 tetramers (original and novel peptide) plus anti-CD3, FACS-sorted into four gates, gDNA sequenced. Particulars: with HLA-A*02:01 with peptide … (NLV 3-1, the original bait), tetramers 1 µg/mL, 30 min on ice, DP and SW gates expanded about 10 days between rounds ('two to three rounds of selection' in the Methods), gate SP: higher = more of the variant in the gate that binds the original peptide and not the novel one = retained original binding. Fold enrichment of the CDR3 variant in one FACS gate of a two-tetra, unresolved parent, parent is a CDR3 fragment, scale: fold enrichment, numbering: sequential-on-construct, sequence ….
Consider […] (CDR3 as printed); G6A derived by comparing it with the table's wild-type CDR3 ASSPTGGSPSPLH, for which the enrichment turned out to be 8.12.

Consider […] (CDR3 as printed); A1I derived by comparing it with the table's wild-type CDR3 ASSPTGGSPSPLH, for which the enrichment was determined as 0.

For […] (CDR3 as printed); G6I derived by comparing it with the table's wild-type CDR3 ASSPTGGSPSPLH, the enrichment was determined as 0.

As to […] (CDR3 as printed); G7A derived by comparing it with the table's wild-type CDR3 ASSPTGGSPSPLH, the enrichment turned out to be 0.

[…] (CDR3 as printed); G6E derived by comparing it with the table's wild-type CDR3 ASSPTGGSPSPLH: the enrichment worked out at 0.

Consider […] (CDR3 as printed); G6W derived by comparing it with the table's wild-type CDR3 ASSPTGGSPSPLH, for which the enrichment stood at 0.

Consider […] (CDR3 as printed); H13M derived by comparing it with the table's wild-type CDR3 ASSPTGGSPSPLH, for which the enrichment amounted to 6.07.

In the case of […] (CDR3 as printed); G6Q derived by comparing it with the table's wild-type CDR3 ASSPTGGSPSPLH, the enrichment is 0.

For […] (CDR3 as printed); H13K derived by comparing it with the table's wild-type CDR3 ASSPTGGSPSPLH, the enrichment amounted to 3.5.

For […] (CDR3 as printed); G6L derived by comparing it with the table's wild-type CDR3 ASSPTGGSPSPLH, the enrichment is 0.

Regarding […] (CDR3 as printed); A1K derived by comparing it with the table's wild-type CDR3 ASSPTGGSPSPLH, the enrichment was found to be 0.

As for […] (CDR3 as printed); A1M derived by comparing it with the table's wild-type CDR3 ASSPTGGSPSPLH, the enrichment came to 0.

With […] (CDR3 as printed); G7N derived by comparing it with the table's wild-type CDR3 ASSPTGGSPSPLH, the enrichment stood at 0.

As for […] (CDR3 as printed); A1H derived by comparing it with the table's wild-type CDR3 ASSPTGGSPSPLH, the enrichment was found to be 0.

[…] (CDR3 as printed); L12E derived by comparing it with the table's wild-type CDR3 ASSPTGGSPSPLH: the enrichment came to 0.

Take […] (CDR3 as printed); A1T derived by comparing it with the table's wild-type CDR3 ASSPTGGSPSPLH: the enrichment was determined as 0.

With […] (CDR3 as printed); G7Q derived by comparing it with the table's wild-type CDR3 ASSPTGGSPSPLH, the enrichment came to 0.

Regarding […] (CDR3 as printed); H13G derived by comparing it with the table's wild-type CDR3 ASSPTGGSPSPLH, the enrichment came out at 0.848.

[…] (CDR3 as printed); A1G derived by comparing it with the table's wild-type CDR3 ASSPTGGSPSPLH: the enrichment is 5.7.

In the case of […] (CDR3 as printed); G7W derived by comparing it with the table's wild-type CDR3 ASSPTGGSPSPLH, the enrichment came to 0.

On to […] (CDR3 as printed); A1F derived by comparing it with the table's wild-type CDR3 ASSPTGGSPSPLH, for which the enrichment came to 0.

On to […] (CDR3 as printed); G6P derived by comparing it with the table's wild-type CDR3 ASSPTGGSPSPLH, for which the enrichment was determined as 0.

Regarding […] (CDR3 as printed); A1V derived by comparing it with the table's wild-type CDR3 ASSPTGGSPSPLH, the enrichment came out at 0.479.

For […] (CDR3 as printed); A1W derived by comparing it with the table's wild-type CDR3 ASSPTGGSPSPLH, the enrichment turned out to be 0.

Regarding […] (CDR3 as printed); H13T derived by comparing it with the table's wild-type CDR3 ASSPTGGSPSPLH, the enrichment amounted to 5.47.

On to […] (CDR3 as printed); G6T derived by comparing it with the table's wild-type CDR3 ASSPTGGSPSPLH, for which the enrichment amounted to 0.64.

For the variant […] (CDR3 as printed); L12D derived by comparing it with the table's wild-type CDR3 ASSPTGGSPSPLH, the enrichment was determined as 0.

For the variant […] (CDR3 as printed); L12C derived by comparing it with the table's wild-type CDR3 ASSPTGGSPSPLH, the enrichment stood at 4.3.

In the case of […] (CDR3 as printed); A1Y derived by comparing it with the table's wild-type CDR3 ASSPTGGSPSPLH, the enrichment amounted to 0.

Turning to […] (CDR3 as printed); H13I derived by comparing it with the table's wild-type CDR3 ASSPTGGSPSPLH, the enrichment is 11.3.

On to […] (CDR3 as printed); H13F derived by comparing it with the table's wild-type CDR3 ASSPTGGSPSPLH, for which the enrichment stood at 4.3.

Turning to […] (CDR3 as printed); A1P derived by comparing it with the table's wild-type CDR3 ASSPTGGSPSPLH, the enrichment is 0.

As to […] (CDR3 as printed); G6K derived by comparing it with the table's wild-type CDR3 ASSPTGGSPSPLH, the enrichment came to 0.

[…] (CDR3 as printed); G6F derived by comparing it with the table's wild-type CDR3 ASSPTGGSPSPLH: the enrichment was 0.

As to […] (CDR3 as printed); G6N derived by comparing it with the table's wild-type CDR3 ASSPTGGSPSPLH, the enrichment stood at 0.

[…] (CDR3 as printed); G6Y derived by comparing it with the table's wild-type CDR3 ASSPTGGSPSPLH: the enrichment came out at 0.

With […] (CDR3 as printed); G7D derived by comparing it with the table's wild-type CDR3 ASSPTGGSPSPLH, the enrichment is 0.

For the variant […] (CDR3 as printed); G7R derived by comparing it with the table's wild-type CDR3 ASSPTGGSPSPLH, the enrichment is 0.

With […] (CDR3 as printed); G7T derived by comparing it with the table's wild-type CDR3 ASSPTGGSPSPLH, the enrichment was 0.

Turning to […] (CDR3 as printed); G6H derived by comparing it with the table's wild-type CDR3 ASSPTGGSPSPLH, the enrichment was 0.

As to […] (CDR3 as printed); G6D derived by comparing it with the table's wild-type CDR3 ASSPTGGSPSPLH, the enrichment is 0.39.

Consider […] (CDR3 as printed); G7L derived by comparing it with the table's wild-type CDR3 ASSPTGGSPSPLH, for which the enrichment stood at 0.

On to […] (CDR3 as printed); A1S derived by comparing it with the table's wild-type CDR3 ASSPTGGSPSPLH, for which the enrichment was 4.29.

For the variant […] (CDR3 as printed); H13A derived by comparing it with the table's wild-type CDR3 ASSPTGGSPSPLH, the enrichment is 6.12.

Regarding […] (CDR3 as printed); G6R derived by comparing it with the table's wild-type CDR3 ASSPTGGSPSPLH, the enrichment stood at 0.

On to […] (CDR3 as printed); A1E derived by comparing it with the table's wild-type CDR3 ASSPTGGSPSPLH, for which the enrichment was 0.

Turning to […] (CDR3 as printed); H13R derived by comparing it with the table's wild-type CDR3 ASSPTGGSPSPLH, the enrichment worked out at 4.99.

Regarding […] (CDR3 as printed); H13Q derived by comparing it with the table's wild-type CDR3 ASSPTGGSPSPLH, the enrichment amounted to 5.02.

As to […] (CDR3 as printed); A1D derived by comparing it with the table's wild-type CDR3 ASSPTGGSPSPLH, the enrichment was determined as 0.

Take […] (CDR3 as printed); A1Q derived by comparing it with the table's wild-type CDR3 ASSPTGGSPSPLH: the enrichment came out at 0.

Regarding […] (CDR3 as printed); A1L derived by comparing it with the table's wild-type CDR3 ASSPTGGSPSPLH, the enrichment came to 0.

As for […] (CDR3 as printed); L12A derived by comparing it with the table's wild-type CDR3 ASSPTGGSPSPLH, the enrichment turned out to be 0.

Consider […] (CDR3 as printed); G7M derived by comparing it with the table's wild-type CDR3 ASSPTGGSPSPLH, for which the enrichment was 0.

As to […] (CDR3 as printed); H13C derived by comparing it with the table's wild-type CDR3 ASSPTGGSPSPLH, the enrichment was 6.06.

For […] (CDR3 as printed); G6C derived by comparing it with the table's wild-type CDR3 ASSPTGGSPSPLH, the enrichment is 0.

For […] (CDR3 as printed); G7E derived by comparing it with the table's wild-type CDR3 ASSPTGGSPSPLH, the enrichment came to 0.336.

Regarding […] (CDR3 as printed); H13P derived by comparing it with the table's wild-type CDR3 ASSPTGGSPSPLH, the enrichment was 0.

As for […] (CDR3 as printed); H13D derived by comparing it with the table's wild-type CDR3 ASSPTGGSPSPLH, the enrichment is 8.55.

With […] (CDR3 as printed); L12G derived by comparing it with the table's wild-type CDR3 ASSPTGGSPSPLH, the enrichment was 0.

For […] (CDR3 as printed); A1C derived by comparing it with the table's wild-type CDR3 ASSPTGGSPSPLH, the enrichment amounted to 1.12.

Consider […] (CDR3 as printed); G7I derived by comparing it with the table's wild-type CDR3 ASSPTGGSPSPLH, for which the enrichment stood at 0.

For the variant […] (CDR3 as printed); H13E derived by comparing it with the table's wild-type CDR3 ASSPTGGSPSPLH, the enrichment was determined as 4.01.

In the case of […] (CDR3 as printed); G6S derived by comparing it with the table's wild-type CDR3 ASSPTGGSPSPLH, the enrichment was 10.5.

In the case of […] (CDR3 as printed); G7K derived by comparing it with the table's wild-type CDR3 ASSPTGGSPSPLH, the enrichment amounted to 0.

For […] (CDR3 as printed); G7H derived by comparing it with the table's wild-type CDR3 ASSPTGGSPSPLH, the enrichment was found to be 0.

Consider […] (CDR3 as printed); G7Y derived by comparing it with the table's wild-type CDR3 ASSPTGGSPSPLH, for which the enrichment was determined as 4.27.

For […] (CDR3 as printed); H13N derived by comparing it with the table's wild-type CDR3 ASSPTGGSPSPLH, the enrichment stood at 7.17.

For the variant […] (CDR3 as printed); A1R derived by comparing it with the table's wild-type CDR3 ASSPTGGSPSPLH, the enrichment was 0.

Consider […] (CDR3 as printed); L12F derived by comparing it with the table's wild-type CDR3 ASSPTGGSPSPLH, for which the enrichment amounted to 0.

Consider […] (CDR3 as printed); H13S derived by comparing it with the table's wild-type CDR3 ASSPTGGSPSPLH, for which the enrichment was 7.33.

For the variant […] (CDR3 as printed); G7C derived by comparing it with the table's wild-type CDR3 ASSPTGGSPSPLH, the enrichment came out at 0.

Consider […] (CDR3 as printed); G7V derived by comparing it with the table's wild-type CDR3 ASSPTGGSPSPLH, for which the enrichment turned out to be 0.

Turning to […] (CDR3 as printed); G6M derived by comparing it with the table's wild-type CDR3 ASSPTGGSPSPLH, the enrichment was found to be 0.

[…] (CDR3 as printed); H13Y derived by comparing it with the table's wild-type CDR3 ASSPTGGSPSPLH: the enrichment came out at 6.69.

Regarding […] (CDR3 as printed); H13V derived by comparing it with the table's wild-type CDR3 ASSPTGGSPSPLH, the enrichment is 5.71.

Take […] (CDR3 as printed); G6V derived by comparing it with the table's wild-type CDR3 ASSPTGGSPSPLH: the enrichment was determined as 0.

For […] (CDR3 as printed); H13L derived by comparing it with the table's wild-type CDR3 ASSPTGGSPSPLH, the enrichment was determined as 5.69.

Take […] (CDR3 as printed); H13W derived by comparing it with the table's wild-type CDR3 ASSPTGGSPSPLH: the enrichment was determined as 8.46.

On to […] (CDR3 as printed); G7S derived by comparing it with the table's wild-type CDR3 ASSPTGGSPSPLH, for which the enrichment was 0.

Consider […] (CDR3 as printed); A1N derived by comparing it with the table's wild-type CDR3 ASSPTGGSPSPLH, for which the enrichment amounted to 0.

In the case of […] (CDR3 as printed); G7F derived by comparing it with the table's wild-type CDR3 ASSPTGGSPSPLH, the enrichment stood at 0.

Variants of B2 are the subject of the next test. The description is as above. The note with it: with HLA-A*02:01 with peptide … (NLV 2-1, the novel peptide), tetramers 1 µg/mL, 30 min on ice, SP, DP and SW gates expanded about 10 days between rounds ('two to three rounds of selection' in the Methods), gate SW: higher = more of the variant in the gate that binds the novel peptide and not the original one = switched binding. Fold enrichment of the CDR3 variant in one FACS gate of a two-tetramer stain, unresolved parent, parent is a CDR3 fragment, scale: fold enrichment, numbering: sequential-on-construct, sequence starts at 1.
On to […] (CDR3 as printed); S8K derived by comparing it with the table's wild-type CDR3 ASSPTGGSPSPLH, for which the enrichment was 0.

As for […] (CDR3 as printed); S3T derived by comparing it with the table's wild-type CDR3 ASSPTGGSPSPLH, the enrichment turned out to be 0.

On to […] (CDR3 as printed); A1L derived by comparing it with the table's wild-type CDR3 ASSPTGGSPSPLH, for which the enrichment was 0.

The values above are taken from article PMC13397619.
